One data set deals with Troponin I (cardiac) (UniProt P19429). Briefly: filter.
Data set [1] has as its target Influenza hemagglutinin H3N2-HA (Influenza A virus) (UniProt P03438). Description: BLI. Background: In BLI a coated tip is dipped into the sample, and binding shifts an interference pattern.
Data set [2] shares this target. Description: filter. The conditions noted are these: dot blot.
The target in data set [3] is Influenza hemagglutinin H1N1-HA (Influenza A virus) (UniProt Q289M7).
For data set [4], the target named is Influenza hemagglutinin H5N1-HA (Influenza A virus) (UniProt Q8QPL1). Description: filter.
The subject of data set [5] is Control lentivirus without spike. Description: filter. The conditions noted are these: three identical arms joined by Trebler, dot blot.

pKd: −log10 of the molar value. Read-outs that look alike come from different tables or passages of the source.

Usually pKd stands for the negative decadic logarithm of the Kd, by convention in mol/L. For the sequence “GGCAGCAGGAAGACAAGACATGGGTGGCGGGGACGGGGCGATGGGAACTTAGATTGCTAGTGGTTCTGTGGTTGCTCTGT [TnAp1]”, the pKd in the data set with Troponin I (cardiac) is 6.90.
As to “GGCAGCAGGAAGACAAGACATGGGTGGCGGGGACGGGGCGATGGGAACTTAGATTGCTAGTGGTTCTGTGGTTGCTCTGTTTTTTCTCTCGC [Trimeric (trident) TnAp1]”, the pKd in the data set with Troponin I (cardiac) (three identical arms joined by Trebler, root TTTTT-Biotin) is 8.40.
For the sequence “GGGTTTGGGTTGGGTTGGGTTTTTGGGTTTGGGTTGGGTTGGGAAAAA [RHA06]”, in data set [1], the pKd was 8.10.
For “GGGTTTGGGTTGGGTTGGGTTTTTGGGTTTGGGTTGGGTTGGGAAAAATTTTTCTCTCGC [Trident RHA06 + antisense 1:1]”, in data set [2] (Trebler-joined arms, antisense DNA of RHA06 hybridised at AS:aptamer 1:1, one arm blocked), the pKd is 9.51.
Turning to “GGGTTTGGGTTGGGTTGGGTTTTTGGGTTTGGGTTGGGTTGGGAAAAATTTTTCTCTCGC [Trident RHA06 + antisense 2:1]”, the pKd in data set [2] (Trebler-joined arms, antisense DNA of RHA06 hybridised at AS:aptamer 2:1, two arms blocked) is 8.10.
“GGGTTTGGGTTGGGTTGGGTTTTTGGGTTTGGGTTGGGTTGGGAAAAATTTTTCTCTCGC [Trimeric (trident) RHA06]”: the pKd is 9.92 in data set [1] (three identical arms (SEQ 12) joined by Trebler, root TTTTT-Biotin); 10.15 in data set [3]; 10.05 in data set [2] (three identical arms (SEQ 12) joined by Trebler, root TTTTT-Biotin, RT); 9.89 in data set [4].
Take “TTACGTCAAGGTGTCACTCCGTAGGGTTTGGCTCCGGGCCTGGCGTCGGTCGTCTCTCGCGAAGCATCTCTTTGGCGTGTTTTTTTTTTTTTTT [TMSA52]”: the pKd in data set [5] is less than 9.30.

The record behind these values is patent publication US20260098270.
